Values quoted from earlier work, collected in paper PMC8006918.
Read-outs that look alike come from different tables or passages of the source. One block for each substance: values may come before it.

Experiments:
[1] = target: Tenascin-C (Homo sapiens) (UniProt P24821)
[2] = target: Tenascin-C (Homo sapiens) (UniProt P24821); remark: listed apart in the source
[3] = target: Tenascin-C (Homo sapiens) (UniProt P24821); remark: listed apart in the source

Tenascin-C (Homo sapiens), sequence (P24821 23-2201): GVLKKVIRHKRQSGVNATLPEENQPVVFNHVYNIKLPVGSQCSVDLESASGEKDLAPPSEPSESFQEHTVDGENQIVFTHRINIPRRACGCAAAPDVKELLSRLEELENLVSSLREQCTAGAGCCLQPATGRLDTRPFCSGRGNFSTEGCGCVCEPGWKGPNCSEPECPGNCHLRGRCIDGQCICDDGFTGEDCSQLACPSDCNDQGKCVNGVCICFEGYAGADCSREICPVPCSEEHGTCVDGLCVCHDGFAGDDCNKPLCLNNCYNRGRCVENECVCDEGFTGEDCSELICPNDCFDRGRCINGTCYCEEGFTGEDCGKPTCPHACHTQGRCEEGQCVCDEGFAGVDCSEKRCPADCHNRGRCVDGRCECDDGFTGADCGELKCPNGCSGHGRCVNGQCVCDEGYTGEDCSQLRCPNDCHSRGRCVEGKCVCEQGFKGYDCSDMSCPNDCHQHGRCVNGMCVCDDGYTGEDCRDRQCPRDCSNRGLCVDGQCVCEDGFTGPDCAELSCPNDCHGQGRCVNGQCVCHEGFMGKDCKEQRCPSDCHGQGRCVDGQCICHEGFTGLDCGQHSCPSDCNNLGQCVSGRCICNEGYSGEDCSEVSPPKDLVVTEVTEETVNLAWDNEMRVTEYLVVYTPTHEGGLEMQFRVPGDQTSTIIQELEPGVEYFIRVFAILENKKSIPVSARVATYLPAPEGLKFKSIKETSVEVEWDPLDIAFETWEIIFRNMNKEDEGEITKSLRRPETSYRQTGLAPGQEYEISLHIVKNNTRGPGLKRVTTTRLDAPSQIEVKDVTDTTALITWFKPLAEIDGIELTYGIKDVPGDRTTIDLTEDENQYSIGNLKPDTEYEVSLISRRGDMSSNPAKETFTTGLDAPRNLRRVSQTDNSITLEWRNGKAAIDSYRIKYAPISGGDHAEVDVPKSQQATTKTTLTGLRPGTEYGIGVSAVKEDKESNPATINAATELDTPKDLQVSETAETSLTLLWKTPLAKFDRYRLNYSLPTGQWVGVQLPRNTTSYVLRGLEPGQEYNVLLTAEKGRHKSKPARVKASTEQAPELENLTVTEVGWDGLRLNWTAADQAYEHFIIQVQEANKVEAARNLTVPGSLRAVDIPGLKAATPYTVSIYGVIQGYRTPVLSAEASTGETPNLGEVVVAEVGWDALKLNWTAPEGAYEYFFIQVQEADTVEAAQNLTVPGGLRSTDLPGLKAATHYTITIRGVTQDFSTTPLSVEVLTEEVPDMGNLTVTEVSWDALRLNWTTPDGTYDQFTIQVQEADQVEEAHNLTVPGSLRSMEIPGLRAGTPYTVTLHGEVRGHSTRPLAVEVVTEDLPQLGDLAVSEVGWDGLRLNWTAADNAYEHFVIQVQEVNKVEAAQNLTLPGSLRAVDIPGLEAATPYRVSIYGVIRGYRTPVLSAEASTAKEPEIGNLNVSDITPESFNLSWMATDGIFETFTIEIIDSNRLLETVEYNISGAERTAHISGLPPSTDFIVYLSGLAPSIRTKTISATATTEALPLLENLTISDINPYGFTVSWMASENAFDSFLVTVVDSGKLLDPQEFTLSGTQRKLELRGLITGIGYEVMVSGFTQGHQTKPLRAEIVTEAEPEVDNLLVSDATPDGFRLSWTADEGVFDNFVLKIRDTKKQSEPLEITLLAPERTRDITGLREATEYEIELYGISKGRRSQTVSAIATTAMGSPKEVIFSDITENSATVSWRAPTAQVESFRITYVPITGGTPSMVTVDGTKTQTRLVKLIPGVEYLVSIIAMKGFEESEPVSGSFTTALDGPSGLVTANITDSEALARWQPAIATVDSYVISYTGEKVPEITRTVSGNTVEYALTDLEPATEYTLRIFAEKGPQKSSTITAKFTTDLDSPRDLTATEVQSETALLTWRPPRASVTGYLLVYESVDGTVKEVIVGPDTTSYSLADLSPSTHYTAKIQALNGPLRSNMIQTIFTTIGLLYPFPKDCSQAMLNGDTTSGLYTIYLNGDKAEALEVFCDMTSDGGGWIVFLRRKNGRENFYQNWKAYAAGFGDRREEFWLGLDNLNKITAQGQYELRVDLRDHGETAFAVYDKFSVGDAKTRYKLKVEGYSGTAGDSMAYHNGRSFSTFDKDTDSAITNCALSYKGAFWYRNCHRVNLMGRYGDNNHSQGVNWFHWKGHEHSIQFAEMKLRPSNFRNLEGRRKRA
TGF-β1, sequence (P01137 279-390): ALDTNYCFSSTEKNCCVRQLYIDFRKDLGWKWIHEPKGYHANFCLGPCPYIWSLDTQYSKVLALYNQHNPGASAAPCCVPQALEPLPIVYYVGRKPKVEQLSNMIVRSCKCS
Fibronectin FN III13, sequence (P02751 1904-1992): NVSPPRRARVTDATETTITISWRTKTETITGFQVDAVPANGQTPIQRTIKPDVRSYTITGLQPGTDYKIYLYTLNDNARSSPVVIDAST
CCL21, sequence (O00585 24-134): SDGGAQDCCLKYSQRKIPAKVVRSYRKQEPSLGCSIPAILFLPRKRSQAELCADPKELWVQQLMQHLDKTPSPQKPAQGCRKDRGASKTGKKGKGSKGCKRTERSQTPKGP

Kd [1]: 58 nM
Substance: CCL21 (from UniProt O00585)

Kd [2]: 128 nM
Substance: Fibronectin FN III13 (from UniProt P02751)

Kd [3]: 20.3 nM
Substance: TGF-β1 (from UniProt P01137)
